Results published in article PMC8696166.

Target: His-GD1 (N-terminally His-tagged GD1 domain of EngA) (Synechococcus elongatus PCC7942)
Experiment: pull-down; His-EngA or His-GD1 (6 μg) bound to DynaBeads-Histag, 6 μg PipX–ST added; 50 mM Tris-HCl pH 7, 0.1 M KCl, 10% glycerol, 10 mM MgCl2, 20 mM imidazole, 0.1% Triton-X100, with or without 1 mM GDP, room temperature; elution with 500 mM imidazole; Western blot with antisera against PipX and EngA

His-GD1 (N-terminally His-tagged GD1 domain of EngA) (Synechococcus elongatus PCC7942), sequence (Q31KP9 1-169): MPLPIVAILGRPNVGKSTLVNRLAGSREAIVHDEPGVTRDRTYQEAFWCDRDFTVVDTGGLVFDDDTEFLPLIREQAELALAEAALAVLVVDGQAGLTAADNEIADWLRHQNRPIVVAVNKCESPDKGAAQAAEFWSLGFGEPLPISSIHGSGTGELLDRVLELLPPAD

- retention of PipX (PipX/GD1 band intensity ratio) relative to the PipX/EngA ratio with His-EngA: 10 fold
B1: PipX–ST (C-terminally Strep-tagged PipX) (natural protein)
chain: MASENYLNHPTFGLLYQICSFGDSKELFATLYAQRLFFLVAFDARGTRFEPIGRNEARMLVDNRLRQLRRDASLQEYNQLQQVFKQTFL
